Assay [1] addresses full-length human Ku heterodimer (Ku70 1-609, Ku80 1-732) (human) (UniProt P12956). Nature of the assay: ITC.
Assay [2] has as its target Ku70-Ku80 heterodimer deleted of its C-terminal regions (Ku70 1-544, Ku80 1-551) (human) (UniProt P12956). In words: ITC. Background: ITC needs no label: the signal is the heat of the interaction.

A word on the Kd: it is the constant that tells how readily two partners part at equilibrium. Read a high Kd as weaker binding. On to “RAG2c peptide, containing motifs 1 and 2 of the RAG2 C-terminus (RAG2-KBM)”, for which the Kd in assay [1] was 1180 nM; in assay [2], 840 nM. In assay [2], this substance came in with a fold weaker affinity than with the 42 bp DNA of 7 fold.
